Test results from US20240043507A1.

Key:
Assay in all cases: cell-based or functional assay
[1] = target: SARS-CoV-2 spike protein on authentic virus, strain B.1.1.7 (SARS-CoV-2) (UniProt P0DTC2)
[2] = target: spike protein of SARS-CoV-2 strain B.1.351 (SARS-CoV-2) (UniProt P0DTC2)
[3] = target: SARS-CoV-2 spike protein on authentic virus, strain SARS-CoV-2/human/AUS/VIC01/2020 (Victoria) (SARS-CoV-2) (UniProt P0DTC2)
[4] = target: spike protein of SARS-CoV-2 strain Victoria (SARS-CoV-2/human/AUS/VIC01/2020) (SARS-CoV-2) (UniProt P0DTC2)
[5] = target: spike protein of SARS-CoV-2 strain B.1.1.7 (SARS-CoV-2) (UniProt P0DTC2)
[6] = target: spike protein of SARS-CoV-2 strain P.1 (SARS-CoV-2) (UniProt P0DTC2)

**Q.** AZD8895 (antibody) was tested. Which IC50 (ug/ml), FRNT [1] did it give?
**A.** 0.011 µg/mL

**Q.** What about the IC50 (FRNT neutralisation) [2] of the same substance?
**A.** 0.046 µg/mL

**Q.** What about the IC50 (ug/ml), FRNT [3] of the same substance?
**A.** 0.005 µg/mL

**Q.** What about the IC50 (FRNT neutralisation) [4] of the same substance?
**A.** 0.005 µg/mL

**Q.** And the IC50 (FRNT, live virus neutralisation) [4]?
**A.** 0.005 µg/mL

**Q.** What about the IC50 (FRNT neutralisation) [5] of the same substance?
**A.** 0.011 µg/mL

**Q.** For REGN10987 (antibody), which IC50 (ug/ml), FRNT [1] is on record?
**A.** 0.028 µg/mL

**Q.** What about the IC50 (FRNT neutralisation) [2] of the same substance?
**A.** 0.007 µg/mL

**Q.** What about the IC50 (ug/ml), FRNT [3] of the same substance?
**A.** 0.032 µg/mL

**Q.** And the IC50 (FRNT neutralisation) [4]?
**A.** 0.032 µg/mL

**Q.** What about the IC50 (FRNT, live virus neutralisation) [4] of the same substance?
**A.** 0.032 µg/mL

**Q.** What about the IC50 (FRNT neutralisation) [5] of the same substance?
**A.** 0.028 µg/mL

**Q.** How did the IC50 (ug/ml), FRNT [1] turn out when AZD1061 (antibody) was run?
**A.** 0.012 µg/mL

**Q.** And the IC50 (FRNT neutralisation) [2]?
**A.** 0.014 µg/mL

**Q.** What about the IC50 (ug/ml), FRNT [3] of the same substance?
**A.** 0.013 µg/mL

**Q.** What about the IC50 (FRNT neutralisation) [4] of the same substance?
**A.** 0.013 µg/mL

**Q.** What about the IC50 (FRNT, live virus neutralisation) [4] of the same substance?
**A.** 0.013 µg/mL

**Q.** And the IC50 (FRNT neutralisation) [5]?
**A.** 0.012 µg/mL

**Q.** For S309 (antibody), which FRNT50 ratio B.1.351/Victoria [2] is on record?
**A.** 2

**Q.** And the IC50 (FRNT neutralisation) [2]?
**A.** 0.082 µg/mL

**Q.** What about the FRNT50 ratio P.1/Victoria [6] of the same substance?
**A.** 1.9

**Q.** And the IC50 (FRNT neutralisation) [4]?
**A.** 0.04 µg/mL

**Q.** And the FRNT50 ratio B.1.1.7/Victoria [5]?
**A.** 1.5

**Q.** And the IC50 (FRNT neutralisation) [5]?
**A.** 0.078 µg/mL

**Q.** For ADG10 (antibody), which FRNT50 ratio B.1.351/Victoria [2] is on record?
**A.** 1.9

**Q.** What about the IC50 (FRNT neutralisation) [2] of the same substance?
**A.** 0.011 µg/mL

**Q.** What about the FRNT50 ratio P.1/Victoria [6] of the same substance?
**A.** 0.5

**Q.** And the IC50 (FRNT neutralisation) [4]?
**A.** 0.006 µg/mL

**Q.** And the FRNT50 ratio B.1.1.7/Victoria [5]?
**A.** 1.8

**Q.** And the IC50 (FRNT neutralisation) [5]?
**A.** 0.01 µg/mL

**Q.** LY-CoV16 (antibody) was tested. Which FRNT50 ratio B.1.351/Victoria [2] did it give?
**A.** > 291

**Q.** What about the IC50 (FRNT neutralisation) [2] of the same substance?
**A.** > 10 µg/mL

**Q.** What about the FRNT50 ratio P.1/Victoria [6] of the same substance?
**A.** > 291

**Q.** What about the IC50 (FRNT neutralisation) [4] of the same substance?
**A.** 0.034 µg/mL

**Q.** What about the FRNT50 ratio B.1.1.7/Victoria [5] of the same substance?
**A.** 1.5

**Q.** What about the IC50 (FRNT neutralisation) [5] of the same substance?
**A.** 3.23 µg/mL

**Q.** For ADG30 (antibody), which FRNT50 ratio B.1.351/Victoria [2] is on record?
**A.** 4.4

**Q.** What about the IC50 (FRNT neutralisation) [2] of the same substance?
**A.** 0.029 µg/mL

**Q.** And the FRNT50 ratio P.1/Victoria [6]?
**A.** 0.3

**Q.** And the IC50 (FRNT neutralisation) [4]?
**A.** 0.007 µg/mL

**Q.** What about the FRNT50 ratio B.1.1.7/Victoria [5] of the same substance?
**A.** 2.5

**Q.** And the IC50 (FRNT neutralisation) [5]?
**A.** 0.016 µg/mL

**Q.** With REGN10933 (antibody) as the substance, how does the IC50 (ug/ml), FRNT [1] read?
**A.** 0.014 µg/mL

**Q.** What about the IC50 (FRNT neutralisation) [2] of the same substance?
**A.** 3.28 µg/mL

**Q.** And the IC50 (ug/ml), FRNT [3]?
**A.** 0.004 µg/mL

**Q.** What about the IC50 (FRNT neutralisation) [4] of the same substance?
**A.** 0.004 µg/mL

**Q.** What about the IC50 (FRNT, live virus neutralisation) [4] of the same substance?
**A.** 0.004 µg/mL

**Q.** And the IC50 (FRNT neutralisation) [5]?
**A.** 0.014 µg/mL

**Q.** Which FRNT50 ratio B.1.351/Victoria [2] does the source give for LY-CoV555 (antibody) here?
**A.** > 1550

**Q.** What about the IC50 (FRNT neutralisation) [2] of the same substance?
**A.** > 10 µg/mL

**Q.** What about the FRNT50 ratio P.1/Victoria [6] of the same substance?
**A.** > 1550

**Q.** And the IC50 (FRNT neutralisation) [4]?
**A.** 0.006 µg/mL

**Q.** And the FRNT50 ratio B.1.1.7/Victoria [5]?
**A.** 1.5

**Q.** What about the IC50 (FRNT neutralisation) [5] of the same substance?
**A.** 0.009 µg/mL

**Q.** For ADG20 (antibody), which FRNT50 ratio B.1.351/Victoria [2] is on record?
**A.** 2.5

**Q.** And the IC50 (FRNT neutralisation) [2]?
**A.** 0.01 µg/mL

**Q.** And the FRNT50 ratio P.1/Victoria [6]?
**A.** 2.2

**Q.** What about the IC50 (FRNT neutralisation) [4] of the same substance?
**A.** 0.004 µg/mL

**Q.** And the FRNT50 ratio B.1.1.7/Victoria [5]?
**A.** 1.4

**Q.** What about the IC50 (FRNT neutralisation) [5] of the same substance?
**A.** 0.006 µg/mL
